The values that follow come from patent publication US20240109974A1 (SHANDONG SIMCERE BIOPHARMACEUTICAL, published 2024).

Residue numbers refer to the chain shown, from its start.

The labels stand for the following.
T1: Cynomolgus TNFR2-His (Sino 90102-C08H) (cynomolgus monkey, UniProt A0A2K5VET2 132-366)
T1 construct: Bought protein; also called cynomolgus monkey TNFR2; recombinant cynomolgus monkey TNFR2 protein; not shown: His tag
T1 sequence: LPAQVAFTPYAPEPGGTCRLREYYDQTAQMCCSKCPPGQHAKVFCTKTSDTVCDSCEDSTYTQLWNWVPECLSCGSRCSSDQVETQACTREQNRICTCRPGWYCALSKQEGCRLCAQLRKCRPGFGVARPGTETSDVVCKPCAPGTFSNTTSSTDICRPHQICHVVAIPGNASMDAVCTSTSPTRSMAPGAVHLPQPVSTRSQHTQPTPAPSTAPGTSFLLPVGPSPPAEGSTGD

T2: human TNFR2 on the surface of CHO-TNFR2 cells (human, UniProt P20333 23-461)
T2 construct: whole, on cells
T2 sequence (looked up): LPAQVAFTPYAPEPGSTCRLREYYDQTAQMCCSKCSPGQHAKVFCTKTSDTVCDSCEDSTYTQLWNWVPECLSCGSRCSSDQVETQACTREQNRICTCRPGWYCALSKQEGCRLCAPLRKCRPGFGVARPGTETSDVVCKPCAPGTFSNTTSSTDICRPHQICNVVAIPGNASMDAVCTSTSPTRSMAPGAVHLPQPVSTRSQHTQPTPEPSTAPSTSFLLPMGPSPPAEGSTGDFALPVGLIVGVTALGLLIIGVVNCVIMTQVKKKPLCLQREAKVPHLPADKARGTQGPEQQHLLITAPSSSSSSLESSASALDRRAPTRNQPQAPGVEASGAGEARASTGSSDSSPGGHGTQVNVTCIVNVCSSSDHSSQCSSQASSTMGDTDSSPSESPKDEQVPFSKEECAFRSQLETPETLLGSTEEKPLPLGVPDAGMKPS

T3: Human TNFR2-His (Sino 10417-H08H) (human, UniProt P20333 23-257)
T3 construct: Bought protein; also called recombinant human TNFR2 protein; not shown: His tag
T3 sequence (looked up): T1 sequence with G16S, P36S, Q117P, H164N, A210E, G216S, V223M

B1: 224-Hu1 (antibody, V domains shown)
VH: QVQLVQSGAEVKKPGASVKVSCKASGFNNKDIYMHWVRQAPGQGLEWIGRIDPATGNTKHDPKFQDRVTMTSDTSTNTVYMELSSLRSEDTAVYYCARSPYGDFGAMDYWGQGTLVTVSS
VL: DIQMTQSPSSLSASVGDRVTITCTASSSVSSNYLHWYQQKPGKAPKLWIYSTSNLPSGVPSRFSGSGSGTDFTLTISSLQPEDFATYYCHQYHRSPWTFGQGTKVEIK
notes: Humanized form of #224; also called VH8 + VL6
B2: 224-Hu7 (antibody, V domains shown)
VH: QVQLVQSGSELKKPGASVKVSCKASGFNNKDIYMHWVRQAPGQGLEWMGRIDPATGNTKHDPKFQDKAVLSSDTSVSTAYLQISSLKAEDTAVYYCARSPYGDFGAMDYWGQGTLVTVSS
VL: B1 VL with W48L
notes: Humanized form of #224; also called VH9 + VL10
B3: 224-Hu6 (antibody, V domains shown)
VH: B1 VH
VL: B1 VL with K43S, A44S
notes: Humanized form of #224; also called VH8 + VL7
B4: 224-Hu2 (antibody, V domains shown)
VH: B2 VH
VL: B1 VL with K43S, A44S
notes: Humanized form of #224; also called VH9 + VL7
B5: 224-Hu3 (antibody, V domains shown)
VH: B2 VH
VL: B1 VL with W48L, P81A, F84A
notes: Humanized form of #224; also called VH9 + VL8
B6: 219-Hu3 (antibody, V domains shown)
VH: QVQLVQSGAEVKKPGSSVKVSCKASGYSFTNYWMNWVRQAPGQGLEWMGMIHPSDTETRLNQNFKDRVTITADKSTSTAYMELSSLRSEDTAVYYCARGEGLGAARSVSMDYWGQGTLVTVSS
VL: DIQMTQSPSSLSASVGDRVTITCRASQDISNYLNWYQQKPDGTVKLLIYYTAILHSGVPSRFSGSGSGTDYSLTISSLQPEDFATYFCQQGNTLPWTFGQGTKVEIK
notes: also called VH5 + VL5
B7: 219-Hu5 (antibody, V domains shown)
VH: B6 VH with A72V
VL: B6 VL
notes: also called VH7 + VL5
B8: 219-Hu1 (antibody, V domains shown)
VH: B6 VH with S16A, G44R, A72R, K74T, T76A
VL: B6 VL
notes: also called VH3 + VL5
B9: 219-Hu2 (antibody, V domains shown)
VH: B6 VH with R67K, V68A
VL: B6 VL
notes: also called VH4 + VL5
B10: 219-Hu4 (antibody, V domains shown)
VH: B6 VH with R38K, M48I, R67K, V68A, I70L, A72V
VL: B6 VL
notes: also called VH6 + VL5

One assay deals with T1, Cynomolgus TNFR2-His (Sino 90102-C08H). The experiment in a line: ELISA, cynomolgus TNFR2-His coated. The procedure:
The test humanized antibody against TNFR2 (as described in Example 1, the antibody was comprised of variable regions linked to IgG-Fc; the WT chimeric antibody also adopted the IgG-Fc structure) was subjected to 3.33-fold gradient dilution, loaded with 100 μl/well, and incubated with shaking at room temperature for 1.5 hours. The plate was washed, and then a working solution of murine anti-human IgG Fc-HRP (diluted at 1:10000) was added, loaded with 100 μl/well, and incubated with shaking at room temperature for 1.0 hour. The plate was washed again, and then the substrate TMB of HRP was added to develop colour. A stop solution was added to stop the reaction, and then a microplate reader (MD 13) was used to read the absorbance value. The binding curve of an antibody was drawn with antibody concentration as the abscissa and corresponding OD value as the ordinate, and fitted with four parameters (GraphPad Prism9) to calculate the EC50 value. The smaller the EC50 value, the stronger the binding ability of an antibody to human/cynomolgus monkey TNFR2. The binding effect of a humanized antibody was normalized to its corresponding human-murine chimeric antibody WT (see SEQ ID NOs: 38-43 for the sequence). The higher the percentage value, the better the binding effect of the humanized antibody. The results of binding of an anti-TNFR2 antibody to a human TNFR2 protein are shown in FIG. 1 and Table 4, and the results of binding of an anti-TNFR2 antibody to cynomolgus monkey TNFR2 are shown in FIG. 2 and Table 4.
On the technique in general: In an ELISA, binding on a coated surface is turned into a signal by an enzyme label.
Molecule B1 showed an EC50 of 0.00998 µg/mL.

In turn, B2 had an EC50 of 0.00839 µg/mL.

Molecule B3 returned an EC50 of 0.00997 µg/mL.

In turn, B4 yielded an EC50 of 0.00962 µg/mL.

Consider B5, for which the EC50 was 0.00969 µg/mL.

As to B6, the response was half-maximal at 0.0127 µg/mL (EC50).

With B7, the concentration giving a half-maximal response (EC50) came to 0.0122 µg/mL.

The molecule B8 registered an EC50 of 0.0148 µg/mL.

For the molecule B9, the EC50 worked out at 0.0113 µg/mL.

Molecule B10 registered a concentration for a half-maximal effect (EC50) of 0.0123 µg/mL.

The target in another assay is T2, human TNFR2 on the surface of CHO-TNFR2 …. The experiment in a line: competition flow cytometry on CHO-TNFR2 cells, competitor TNFα-biotin; area under the MFI curve. Also on record: unit not given beside the values. The procedure:
CHO stable cells highly expressing human TNFR2 were used for the experiment (the same as CHO-TNFR2 in Example 4). The CHO-TNFR2 cells were digested, washed twice with DPBS, then stained with Live/Dead (L/D) (20 minutes at room temperature), and plated at a density of 1×10⁵ cells/50 μl/well. A test anti-TNFR2 antibody was diluted to 6 μg/ml with a staining buffer as the starting concentration: the antibody was subjected to 3.33-fold gradient dilution, with a total of 7 concentration points. The diluted antibody was added to the plated cells at 50 μl/well, and the mixture was mixed well by gentle pipetting, and incubated at 4° C. for 30 minutes. Then the diluted 100 ng/ml of human TNFα-biotin was added at 100 μl/well, and the mixture was mixed well by gentle pipetting, and then incubated at 4° C. for 30 minutes. The mixture was washed twice with a staining buffer, and then 0.12 μg/ml PE-streptavidin (BioLegend, Cat #405204) was added at 100 μl/well; the resulting mixture was incubated at 4° C. for 30 minutes. The mixture was washed twice with a staining buffer, and then 150 μl of staining buffer was added to resuspend the cells; signals were detected by a flow cytometer (Thermo Attune NxT). The inhibitory curve of an antibody was drawn with antibody concentration as the abscissa and corresponding MFI value as the ordinate, and fitted with four parameters (GraphPad Prism9) to calculate the IC50 value. The smaller the IC50 value, the stronger the ability of an antibody to inhibit the binding of human TNFα to human TNFR2. The blocking effect of a humanized antibody was normalized to its corresponding human-murine chimeric WT antibody. The higher the percentage value, the better the inhibitory effect of the humanized antibody.
(In flow cytometry, cells or beads pass a laser one at a time.)
Take B1: the AUC was found to be 20300.

Molecule B2 displayed an AUC of 19600.

B3 showed an AUC of 13900.

Turning to B4, the AUC worked out at 19200.

B5 came in with an AUC of 18700.

B6: the AUC was 7590.

The molecule B7 yielded an AUC of 7260.

In turn, B8 registered an AUC of 7320.

As for B9, the AUC turned out to be 7340.

For the molecule B10, the AUC is 7320.

The next assay concerns the target T1, Cynomolgus TNFR2-His (Sino 90102-C08H). The experiment in a line: SPR (Biacore T200), antibody captured on Protein A chip. The procedure: (§1) Biacore was used to detect the specific binding of a test anti-TNFR2 antibody to human and cynomolgus monkey TNFR2 proteins. In this experiment, a Protein A chip was used, the time required for the chip to capture the diluted antibody was determined by manual run, so that the Rmax of the saturated binding to an antigen was 50 RU. […] The affinity of an antibody for an antigen was determined by using multi-cycle dynamics. In each cycle, an antibody was injected and then a TNFR2 protein at a gradient concentration was injected, so that the antigen and the antibody underwent binding and dissociation processes. After each cycle, the Protein A chip was regenerated with Glycine pH 1.5 (removing the protein on the chip). The affinity KD of an antibody and an antigen was fitted with BIAcore T200 analysis software.
Molecule B1 gave a Kd of 3.95 nM, a koff of 0.000953 s⁻¹ and a kon of 241000 M⁻¹ s⁻¹.

B2 showed a Kd of 3.12 nM, a koff of 0.000991 s⁻¹ and a kon of 318000 M⁻¹ s⁻¹.

In turn, B3 yielded a Kd of 2.63 nM, a koff of 0.000848 s⁻¹ and a kon of 323000 M⁻¹ s⁻¹.

In turn, B4 yielded a Kd of 2.95 nM, a koff of 0.000835 s⁻¹ and a kon of 283000 M⁻¹ s⁻¹.

In turn, B5 had a Kd of 2.97 nM, a koff of 0.000847 s⁻¹ and an on-rate constant (kon) of 285000 M⁻¹ s⁻¹.

Take B6: binding was put at a Kd of 0.723 nM, the dissociation rate constant (koff) stood at 0.000399 s⁻¹ and the kon came out at 552000 M⁻¹ s⁻¹.

Turning to B7, the dissociation constant Kd was determined as 0.626 nM, the dissociation rate constant (koff) stood at 0.000381 s⁻¹ and the kon is 608000 M⁻¹ s⁻¹.

B8: binding was put at a Kd of 0.532 nM, the koff turned out to be 0.000332 s⁻¹ and the kon came out at 623000 M⁻¹ s⁻¹.

In the case of B9, the affinity, expressed as Kd, was 0.681 nM; the koff turned out to be 0.000412 s⁻¹; the kon amounted to 605000 M⁻¹ s⁻¹.

B10: binding was characterised by a dissociation constant (Kd) of 0.576 nM, the koff was found to be 0.000389 s⁻¹ and the kon was 675000 M⁻¹ s⁻¹.

The next assay has as its target T3, Human TNFR2-His (Sino 10417-H08H). The description is as above. As to the method:
as §1
On to B1, for which binding was put at a Kd of 6.57 nM, the koff was found to be 0.000766 s⁻¹ and the kon was 117000 M⁻¹ s⁻¹.

Turning to B2, the affinity, expressed as Kd, was 5.64 nM; the koff is 0.000815 s⁻¹; the kon turned out to be 145000 M⁻¹ s⁻¹.

B3: the Kd was 4.08 nM, the off-rate constant (koff) is 0.000697 s⁻¹ and the on-rate constant (kon) came to 171000 M⁻¹ s⁻¹.

Turning to B4, the Kd came to 4.31 nM, the koff amounted to 0.000686 s⁻¹ and the kon was determined as 159000 M⁻¹ s⁻¹.

For B5, the Kd turned out to be 4.1 nM, the koff worked out at 0.000726 s⁻¹ and the on-rate (kon) is 177000 M⁻¹ s⁻¹.

B6 showed a Kd of 0.362 nM, a koff of 0.000146 s⁻¹ and a kon of 403000 M⁻¹ s⁻¹.

B7 returned a Kd of 0.309 nM, a koff of 0.000137 s⁻¹ and a kon of 445000 M⁻¹ s⁻¹.

B8 came in with a dissociation constant (Kd) of 0.354 nM, a koff of 0.000153 s⁻¹ and an on-rate (kon) of 433000 M⁻¹ s⁻¹.

The molecule B9 registered a dissociation constant Kd of 0.34 nM, a koff of 0.000151 s⁻¹ and a kon of 443000 M⁻¹ s⁻¹.

Molecule B10 showed an equilibrium dissociation constant (Kd) of 0.318 nM, a koff of 0.000154 s⁻¹ and a kon of 484000 M⁻¹ s⁻¹.

Usually EC50 stands for the midpoint of the concentration-response curve. For orientation: Kd means a measure of binding affinity in units of concentration. One may read the koff as the rate constant with which the complex falls apart. Usually kon stands for a measure of how fast the partners come together.
